Measurements from the Human Domainome abundance scans (Beltran et al. 2025).
± gives the uncertainty stated by the source.

B1: Serine/threonine-protein kinase A-Raf, residues 21 to 89; numbered along this chain, P10398 (parent)
chain: VKVYLPNKQRTVVTVRDGMSVYDSLDKALKVRGLNQDCCVVYRLIKGRKTVTAWDTAIAPLDGEELIVE

Variants of: B1
Test: abundance fitness (aPCA) (normalised: wild type 0, dead -1); higher = more abundant; growth selection in yeast, the domain comes from the species named
Details: Homo sapiens
VKVYLPNKQRTVVTVRDGMSVYDSLDKALKVRGLNQDCCVVMRLIKGRKTVTAWDTAIAPLDGEELIVE [Y42M] gave an abundance fitness of -0.684 ± 0.13. VKVYLPNKQRTVVTVRDGMSVYDSLDKALKVRGLNQDCCVVPRLIKGRKTVTAWDTAIAPLDGEELIVE [Y42P] gave an abundance fitness of -0.926 ± 0.15. VKVYLPNKQRTVVTVRDGMSVYDSLDKALKVRGLNQDCCVVTRLIKGRKTVTAWDTAIAPLDGEELIVE [Y42T] gave an abundance fitness of -0.561 ± 0.09. VKVYLPNKQRTVVTVRDGMSVYDSLDKALKVRGLNQDCCVVFRLIKGRKTVTAWDTAIAPLDGEELIVE [Y42F] gave an abundance fitness of -0.004 ± 0.069. With VKVYLPNKQRTVVTVRDGMSVYDSLDKALKVRGLNQDCCVVQRLIKGRKTVTAWDTAIAPLDGEELIVE [Y42Q] the abundance fitness was -0.945 ± 0.38. VKVYLPNKQRTVVTVRDGMSVYDSLDKALKVRGLNQDCCVVERLIKGRKTVTAWDTAIAPLDGEELIVE [Y42E] showed an abundance fitness of -1.02 ± 0.26. In the case of VKVYLPNKQRTVVTVRDGMSVYDSLDKALKVRGLNQDCCVVIRLIKGRKTVTAWDTAIAPLDGEELIVE [Y42I], the abundance fitness is reported as -0.844 ± 0.35. Variant VKVYLPNKQRTVVTVRDGMSVYDSLDKALKVRGLNQDCCVVLRLIKGRKTVTAWDTAIAPLDGEELIVE [Y42L] has an abundance fitness of -1.02 ± 0.17. VKVYLPNKQRTVVTVRDGMSVYDSLDKALKVRGLNQDCCVVKRLIKGRKTVTAWDTAIAPLDGEELIVE [Y42K] gave an abundance fitness of -0.481 ± 0.16. VKVYLPNKQRTVVTVRDGMSVYDSLDKALKVRGLNQDCCVVHRLIKGRKTVTAWDTAIAPLDGEELIVE [Y42H] gave an abundance fitness of -0.557 ± 0.12. VKVYLPNKQRTVVTVRDGMSVYDSLDKALKVRGLNQDCCVVDRLIKGRKTVTAWDTAIAPLDGEELIVE [Y42D] gave an abundance fitness of -0.928 ± 0.21. VKVYLPNKQRTVVTVRDGMSVYDSLDKALKVRGLNQDCCVVNRLIKGRKTVTAWDTAIAPLDGEELIVE [Y42N] gave an abundance fitness of -0.159 ± 0.25. VKVYLPNKQRTVVTVRDGMSVYDSLDKALKVRGLNQDCCVVRRLIKGRKTVTAWDTAIAPLDGEELIVE [Y42R] showed an abundance fitness of -1.15 ± 0.23. Variant VKVYLPNKQRTVVTVRDGMSVYDSLDKALKVRGLNQDCCVVGRLIKGRKTVTAWDTAIAPLDGEELIVE [Y42G] has an abundance fitness of -0.824 ± 0.089. VKVYLPNKQRTVVTVRDGMSVYDSLDKALKVRGLNQDCCVVWRLIKGRKTVTAWDTAIAPLDGEELIVE [Y42W] showed an abundance fitness of -0.366 ± 0.064. Variant VKVYLPNKQRTVVTVRDGMSVYDSLDKALKVRGLNQDCCVVSRLIKGRKTVTAWDTAIAPLDGEELIVE [Y42S] has an abundance fitness of -0.525 ± 0.093. For VKVYLPNKQRTVVTVRDGMSVYDSLDKALKVRGLNQDCCVVARLIKGRKTVTAWDTAIAPLDGEELIVE [Y42A], the abundance fitness was -1.05 ± 0.22. VKVYLPNKQRTVVTVRDGMSVYDSLDKALKVRGLNQDCCVVVRLIKGRKTVTAWDTAIAPLDGEELIVE [Y42V] showed an abundance fitness of -0.864 ± 0.1. VKVYLPNKQRTVVTVRDGMSVYDSLDKALKVRGLNQDCCVYYRLIKGRKTVTAWDTAIAPLDGEELIVE [V41Y] gave an abundance fitness of -0.938 ± 0.38. VKVYLPNKQRTVVTVRDGMSVYDSLDKALKVRGLNQDCCVVYRCIKGRKTVTAWDTAIAPLDGEELIVE [L44C] showed an abundance fitness of -0.684 ± 0.38. Work on VKVYLPNKQRTVVTVRDGMSVYDSLDKALKVRGLNQDCCVVYRAIKGRKTVTAWDTAIAPLDGEELIVE [L44A] yielded an abundance fitness of -0.475 ± 0.07. Variant VKVYLPNKQRTVVTVRDGMSVYDSLDKALKVRGLNQDCCVVYRDIKGRKTVTAWDTAIAPLDGEELIVE [L44D] has an abundance fitness of -0.65 ± 0.45. With VKVYLPNKQRTVVTVRDGMSVYDSLDKALKVRGLNQDCCVVYQLIKGRKTVTAWDTAIAPLDGEELIVE [R43Q] the abundance fitness was -0.102 ± 0.076. VKVYLPNKQRTVVTVRDGMSVYDSLDKALKVRGLNQDCCVVYCLIKGRKTVTAWDTAIAPLDGEELIVE [R43C] gave an abundance fitness of -0.742 ± 0.15. For VKVYLPNKQRTVVTVRDGMSVYDSLDKALKVRGLNQDCCVVYSLIKGRKTVTAWDTAIAPLDGEELIVE [R43S], the abundance fitness was -0.305 ± 0.061. With VKVYLPNKQRTVVTVRDGMSVYDSLDKALKVRGLNQDCCVVYILIKGRKTVTAWDTAIAPLDGEELIVE [R43I] the abundance fitness was -1 ± 0.37. VKVYLPNKQRTVVTVRDGMSVYDSLDKALKVRGLNQDCCVVYPLIKGRKTVTAWDTAIAPLDGEELIVE [R43P] gave an abundance fitness of -0.822 ± 0.33. With VKVYLPNKQRTVVTVRDGMSVYDSLDKALKVRGLNQDCCVVYWLIKGRKTVTAWDTAIAPLDGEELIVE [R43W] the abundance fitness was -0.911 ± 0.38. With VKVYLPNKQRTVVTVRDGMSVYDSLDKALKVRGLNQDCCVVYGLIKGRKTVTAWDTAIAPLDGEELIVE [R43G] the abundance fitness was -0.907 ± 0.13. VKVYLPNKQRTVVTVRDGMSVYDSLDKALKVRGLNQDCCVVYHLIKGRKTVTAWDTAIAPLDGEELIVE [R43H] showed an abundance fitness of -0.072 ± 0.42. VKVYLPNKQRTVVTVRDGMSVYDSLDKALKVRGLNQDCCVVYLLIKGRKTVTAWDTAIAPLDGEELIVE [R43L] showed an abundance fitness of -0.963 ± 0.12. With VKVYLPNKQRTVVTVRDGMSVYDSLDKALKVRGLNQDCCVVYALIKGRKTVTAWDTAIAPLDGEELIVE [R43A] the abundance fitness was -0.721 ± 0.14. In the case of VKVYLPNKQRTVVTVRDGMSVYDSLDKALKVRGLNQDCCVVYKLIKGRKTVTAWDTAIAPLDGEELIVE [R43K], the abundance fitness is reported as -0.205 ± 0.083. Work on VKVYLPNKQRTVVTVRDGMSVYDSLDKALKVRGLNQDCCVVYMLIKGRKTVTAWDTAIAPLDGEELIVE [R43M] yielded an abundance fitness of -1 ± 0.23. VKVYLPNKQRTVVTVRDGMSVYDSLDKALKVRGLNQDCCVVYTLIKGRKTVTAWDTAIAPLDGEELIVE [R43T] showed an abundance fitness of -0.225 ± 0.067. VKVYLPNKQRTVVTVRDGMSVYDSLDKALKVRGLNQDCCVVYVLIKGRKTVTAWDTAIAPLDGEELIVE [R43V] showed an abundance fitness of -0.703 ± 0.096. VKVYLPNKQRTVVTVRDGMSVYDSLDKALKVRGLNQDCCVVYDLIKGRKTVTAWDTAIAPLDGEELIVE [R43D] showed an abundance fitness of -0.939 ± 0.43. In the case of VKVYLPNKQRTVVTVRDGMSVYDSLDKALKVRGLNQDCCVVYNLIKGRKTVTAWDTAIAPLDGEELIVE [R43N], the abundance fitness is reported as -0.602 ± 0.43. VKVYLPNKQRTVVTVRDGMSVYDSLDKALKVRGLNQDCCVVYELIKGRKTVTAWDTAIAPLDGEELIVE [R43E] gave an abundance fitness of -0.824 ± 0.3.
